Assay results published in the supplement of paper PMC11246515.
± gives the standard deviation of the averaged measurements.

Assay: total protein half-life in vivo (active degradation + dilution); higher = more stable protein
[1] = E. coli NCM3722 delta-clpP delta-lon delta-hslV, growth: N-lim chemostat, doubling time 6 h
[2] = E. coli NCM3722 delta-clpP, growth: N-lim chemostat, doubling time 6 h
[3] = E. coli NCM3722 delta-hslV, growth: N-lim chemostat, doubling time 6 h
[4] = E. coli NCM3722 delta-lon, growth: N-lim chemostat, doubling time 6 h
[5] = E. coli NCM3722 delta-smpB, growth: N-lim chemostat, doubling time 6 h
[6] = wild type E. coli NCM3722, growth: C-lim chemostat, doubling time 3 h
[7] = wild type E. coli NCM3722, growth: C-lim chemostat, doubling time 6 h
[8] = wild type E. coli NCM3722, growth: C-lim chemostat, doubling time 12 h
[9] = wild type E. coli NCM3722, growth: N-lim chemostat, doubling time 6 h
[10] = wild type E. coli NCM3722, growth: N-lim chemostat, doubling time 12 h
[11] = wild type E. coli NCM3722, growth: P-lim chemostat, doubling time 6 h
[12] = wild type E. coli NCM3722, growth: P-lim chemostat, doubling time 12 h

Sequence | total protein half-life in vivo [1] | total protein half-life in vivo [2] | total protein half-life in vivo [3] | total protein half-life in vivo [4] | total protein half-life in vivo [5] | total protein half-life in vivo [6] | total protein half-life in vivo [7] | total protein half-life in vivo [8] | total protein half-life in vivo [9] | total protein half-life in vivo [10] | total protein half-life in vivo [11] | total protein half-life in vivo [12]
MIEFDNLTYLHGKPQGTGLLKANPEDFVVVEDLGFEPDGEGEHILVRILKNGCNTRFVADALAKFLKIHAREVSFAGQKDKHAVTEQWLCARVPGKEMPDLSAFQLEGCQVLEYARHKRKLRLGALKGNAFTLVLREVSNRDDVEQRLIDICVKGVPNYFGAQRFGIGGSNLQGAQRWAQTNTPVRDRNKRSFWLSAARSALFNQIVAERLKKADVNQVVDGDALQLAGRGSWFVATTEELAELQRRVNDKELMITAALPGSGEWGTQREALAFEQAAVAAETELQALLVREKVEAARRAMLLYPQQLSWNWWDDVTVEIRFWLPAGSFATSVVRELINTTGDYAHIAE | 5.52 ± 0.077 h | 5.85 ± 0.93 h | 5.53 ± 0.64 h | 6.03 ± 0.79 h | 5.8 ± 0.21 h | 3.11 ± 0.11 h | 5.78 ± 0.067 h | 12.8 ± 1.1 h | 4.93 ± 0.21 h | 9.75 ± 0.26 h | 5.99 ± 0.14 h | 12.6 ± 0.88 h
MKNCVIVSAVRTAIGSFNGSLASTSAIDLGATVIKAAIERAKIDSQHVDEVIMGNVLQAGLGQNPARQALLKSGLAETVCGFTVNKVCGSGLKSVALAAQAIQAGQAQSIVAGGMENMSLAPYLLDAKARSGYRLGDGQVYDVILRDGLMCATHGYHMGITAENVAKEYGITREMQDELALHSQRKAAAAIESGAFTAEIVPVNVVTRKKTFVFSQDEFPKANSTAEALGALRPAFDKAGTVTAGNASGINDGAAALVIMEESAALAAGLTPLARIKSYASGGVPPALMGMGPVPATQKALQLAGLQLADIDLIEANEAFAAQFLAVGKNLGFDSEKVNVNGGAIALGHPIGASGARILVTLLHAMQARDKTLGLATLCIGGGQGIAMVIERLN | 4.78 ± 0.92 h | 3.36 h | – | 2.93 ± 0.073 h | 2.808 ± 0.0077 h | 3.34 h | 5.45 ± 1.1 h | 8 h | 2.92 ± 0.27 h | 3.67 ± 0.067 h | 5.43 h | –
MSLLNVPAGKDLPEDIYVVIEIPANADPIKYEIDKESGALFVDRFMSTAMFYPCNYGYINHTLSLDGDPVDVLVPTPYPLQPGSVIRCRPVGVLKMTDEAGEDAKLVAVPHSKLSKEYDHIKDVNDLPELLKAQIAHFFEHYKDLEKGKWVKVEGWENAEAAKAEIVASFERAKNK [P0A7A9] | 5.91 ± 0.78 h | 4.83 ± 0.22 h | 5.09 ± 0.49 h | 6.36 ± 0.52 h | 5.358 ± 0.02 h | 3.48 ± 0.71 h | 5.73 ± 0.47 h | 10.6 ± 0.65 h | 4.34 ± 0.4 h | 8.63 ± 0.47 h | 5.65 ± 1.4 h | 14.4 ± 1.1 h
MRSSAKQEELVKAFKALLKEEKFSSQGEIVAALQEQGFDNINQSKVSRMLTKFGAVRTRNAKMEMVYCLPAELGVPTTSSPLKNLVLDIDYNDAVVVIHTSPGAAQLIARLLDSLGKAEGILGTIAGDDTIFTTPANGFTVKDLYEAILELFDQEL [P0A6D0] | 5.74 h | 5.76 ± 0.36 h | 5.36 ± 0.18 h | 6.26 h | 6.3 ± 1.1 h | 3.07 ± 0.25 h | 5.2 ± 1 h | 10.7 ± 1.8 h | 5.26 ± 0.67 h | 10.5 h | 4.85 ± 0.56 h | 11.8 ± 0.96 h
MTQFTQNTAMPSSLWQYWRGLSGWNFYFLVKFGLLWAGYLNFHPLLNLVFAAFLLMPLPRYSLHRLRHWIALPIGFALFWHDTWLPGPESIMSQGSQVAGFSTDYLIDLVTRFINWQMIGAIFVLLVAWLFLSQWIRITVFVVAILLWLNVLTLAGPSFSLWPAGQPTTTVTTTGGNAAATVAATGGAPVVGDMPAQTAPPTTANLNAWLNNFYNAEAKRKSTFPSSLPADAQPFELLVINICSLSWSDIEAAGLMSHPLWSHFDIEFKNFNSATSYSGPAAIRLLRASCGQTSHTNLYQPANNDCYLFDNLSKLGFTQHLMMGHNGQFGGFLKEVRENGGMQSELMDQTNLPVILLGFDGSPVYDDTAVLNRWLDVTEKDKNSRSATFYNTLPLHDGNHYPGVSKTADYKARAQKFFDELDAFFTELEKSGRKVMVVVVPEHGGALKGDRMQVSGLRDIPSPSITDVPVGVKFFGMKAPHQGAPIVIEQPSSFLAISDLVVRVLDGKIFTEDNVDWKKLTSGLPQTAPVSENSNAVVIQYQDKPYVRLNGGDWVPYPQ | 3.61 ± 0.11 h | 4.03 ± 0.34 h | 2.98 ± 1.2 h | 3.68 ± 0.32 h | 3.66 ± 0.32 h | 2.602 ± 0.019 h | 4.28 ± 0.59 h | 8.3 ± 0.53 h | 4.05 ± 0.25 h | 6.43 ± 1.3 h | 3.91 ± 0.42 h | 6.54 ± 0.083 h
MSNKPFIYQAPFPMGKDNTEYYLLTSDYVSVADFDGETILKVEPEALTLLAQQAFHDASFMLRPAHQKQVAAILHDPEASENDKYVALQFLRNSEIAAKGVLPTCQDTGTAIIVGKKGQRVWTGGGDEETLSKGVYNTYIEDNLRYSQNAALDMYKEVNTGTNLPAQIDLYAVDGDEYKFLCVAKGGGSANKTYLYQETKALLTPGKLKNFLVEKMRTLGTAACPPYHIAFVIGGTSAETNLKTVKLASAHYYDELPTEGNEHGQAFRDVQLEQELLEEAQKLGLGAQFGGKYFAHDIRVIRLPRHGASCPVGMGVSCSADRNIKAKINREGIWIEKLEHNPGQYIPQELRQAGEGEAVKVDLNRPMKEILAQLSQYPVSTRLSLTGTIIVGRDIAHAKLKELIDAGKELPQYIKDHPIYYAGPAKTPAGYPSGSLGPTTAGRMDSYVDLLQSHGGSMIMLAKGNRSQQVTDACHKHGGFYLGSIGGPAAVLAQQSIKHLECVAYPELGMEAIWKIEVEDFPAFILVDDKGNDFFQQIVNKQCANCTK | 5.77 ± 0.79 h | – | 4.08 ± 0.13 h | 4.19 ± 0.42 h | 3.86 ± 0.25 h | 3.08 ± 0.042 h | 5.65 ± 0.69 h | 9.34 ± 1.8 h | 4.28 ± 0.48 h | 5.98 ± 0.31 h | 5.73 h | 11.2 ± 0.73 h
MYLRPDEVARVLEKVGFTVDVVTQKAYGYRRGENYVYVNREARMGRTALVIHPTLKERSSTLAEPASDIKTCDHYQQFPLYLAGERHEHYGIPHGFSSRVALERYLNGLFGEAS [P0AD53] | 4.77 ± 0.34 h | 1.5 h | 0.818 h | 2.99 ± 0.41 h | 0.698 ± 0.21 h | 1.18 ± 0.14 h | 1.81 ± 0.54 h | 1.42 h | 0.609 ± 0.47 h | 1.14 h | 1.03 ± 0.22 h | 2.61 h
